In patent US20210087298A1:

How the values were obtained:
HER2 [1] = target: HER2 (UniProt P04626); assay: apparent Kd, flow cytometry on JIMT-1 cells
HER2 [2] = target: HER2 (UniProt P04626); assay: apparent Kd, flow cytometry on SKBr3 cells
HER2 [3] = target: HER2 (UniProt P04626); assay: apparent Kd, flow cytometry on SKOV3 cells
HER2 [4] = target: HER2 (UniProt P04626); assay: apparent Kd, flow cytometry on SKOV3 cells (n = 2)

| Kd (HER2 [1]) [nM] | Kd (HER2 [2]) [nM] | Kd (HER2 [3]) [nM] | Kd (HER2 [4]) [nM] | Substance |
| --- | --- | --- | --- | --- |
| 3.9 | 2.6 | 3.3 | 3.5 | trast A158N-MB488: trastuzumab A158N mutant conjugated through Neu5NAz on Fd glycans (antibody) |
| – | 1.8 | – | – | trast T191N-MB488 (antibody) |
| 3.2 | 2.3 | 3.1 | – | trast K129N-MB488 (antibody) |
| – | – | 3.4 | 3.5 | trast L189N-MB488: trastuzumab L189N mutant conjugated through Neu5NAz on Fd glycans (antibody) |
